Seven molecules from patent US20250270319A1 (Alector, published 2025) can be followed below.

In experiment [1] the target is T1, human CD33 on primary human dendritic cells (human, UniProt P20138 18-364).
T1 construct: Endogenous CD33 of monocyte-derived dendritic cells from healthy donors; also called Siglec-3
As to the kind of experiment: flow cytometry on primary human dendritic cells, antibody dilutions, fluorescent anti-human IgG secondary. The method, then:
The 7 humanized anti-CD33 antibodies of 6C7 were evaluated for binding to primary dendritic cells by flow cytometry, and binding was compared to that of an anti-CD33 6C7 chimeric antibody that contained the variable heavy chain sequence and the variable light chain sequence of anti-CD33 antibody 6C7. Monocytes were isolated from blood from healthy human donors using the RosetteSep™ monocyte isolation antibody cocktail (StemCell Technologies). The isolated monocytes were differentiated into dendritic cells with 100 ng/mL GM-CSF and 100 ng/mL IL-4 (Peprotech). Dendritic cells were incubated with dilutions of the anti-CD33 antibodies for 30 minutes on ice in the dark, followed by a 30-minute incubation with a fluorescently-conjugated anti-human IgG secondary antibody. Cells were washed twice in FACS buffer (PBS+2% FBS, 2 mM EDTA), and flow cytometry was performed on a BD FACS Canto. Data were analyzed using FlowJo software (Ashland, OR).
On the technique in general: Flow cytometry measures light scatter and fluorescence of single cells or particles in a stream.

The target of experiment [2] is T2, recombinant human CD33 protein (Sino Biologicals) (human, UniProt P20138 18-259).
T2 construct: Bought protein; also called recombinant CD33
As to the kind of experiment: BLI (ForteBio), antibody on anti-human Fc sensor, CD33 10 nM. (Biolayer interferometry detects binding as a change in optical thickness at a sensor tip.)

Experiment [3] deals with T1, human CD33 on primary human dendritic …. As to the kind of experiment: flow cytometry, primary human dendritic cells, 2 ug/mL.

T2 sequence (P20138 18-259 limits assumed): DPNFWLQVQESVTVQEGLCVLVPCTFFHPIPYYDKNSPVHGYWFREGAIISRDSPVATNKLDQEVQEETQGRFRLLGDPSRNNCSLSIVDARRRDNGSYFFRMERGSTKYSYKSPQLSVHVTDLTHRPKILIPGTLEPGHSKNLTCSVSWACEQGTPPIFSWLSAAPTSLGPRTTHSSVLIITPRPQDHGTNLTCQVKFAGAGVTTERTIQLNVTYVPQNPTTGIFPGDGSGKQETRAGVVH
T1 sequence (P20138 18-364): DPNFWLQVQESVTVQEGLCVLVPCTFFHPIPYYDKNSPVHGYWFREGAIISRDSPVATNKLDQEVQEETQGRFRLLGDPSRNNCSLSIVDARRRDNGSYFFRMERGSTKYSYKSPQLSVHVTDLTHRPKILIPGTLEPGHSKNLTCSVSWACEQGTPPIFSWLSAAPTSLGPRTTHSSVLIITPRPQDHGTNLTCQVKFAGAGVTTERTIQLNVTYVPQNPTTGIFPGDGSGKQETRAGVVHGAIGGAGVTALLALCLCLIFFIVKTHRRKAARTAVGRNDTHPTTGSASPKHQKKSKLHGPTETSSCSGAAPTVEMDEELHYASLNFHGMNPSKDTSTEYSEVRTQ

B1: anti-CD33 antibody 6C7H1 (antibody, V domains shown)
VH: EVQLVESGGGLVQPGGSLRLSCAASGFTFSNYCMNWVRQAPGKGLEWVGEIRLKSNNYVTNYAASVKGRFTISRDDSKNSLYLQMNSLKTEDTAVYYCARDGYYVPFAYWGQGTLVTVSS
VL: QLVLTQSPSASASLGASVKLTCTLSSQHSTYTIEWHQQQPEKGPRYLMKLKKDGSHSTGDGIPDRFSGSSSGAERYLTISSLQSEDEADYYCGVGDTIKEQFVYVFGGGTKLTVL
notes: Humanized 6C7; VH/VL only
B1: the binding result in experiment [1] is “no binding (tested: about 1.2 ug/mL)”.

B2: anti-CD33 antibody 6C7H7 (antibody, V domains shown)
VH: EVQLVESGGGLVQPGGSLRLSCAGSGFTFSNYCMNWVRQAPGKGLEWVAEIRLKSNNYVTNYAASVKGRFTISRDDSKNSLYLQMNSLKTEDTAVYYCTRDGYYVPFAYWGQGTLVTVSS
VL: QLVLTQSPSASASLGASAKLTCTLSSQHSTYTIEWYQQQPEKGPRYVMELKKDGSHSTGDGIPDRFSGSSSGAERYLTISSIQSEDEADYICGVGDTIKEQFVYVFGGGTKVTVL
notes: Humanized 6C7; VH/VL only
B2: in experiment [1], the binding result is given as “binds”.

B3: anti-CD33 antibody 6C7H4 (antibody, V domains shown)
VH: EVQLVESGGGLVQPGGSLRLSCAGSGFTFSNYCMNWVRQAPGKGLEWVAEIRLKSNNYVTNYAASVKGRFTISRDDSKNSLYLQMNSLKTEDTAVYYCTRDGYYVPFAYWGQGTLVTVSS
VL: QLVLTQSPSASASLGASVKLTCTLSSQHSTYTIEWYQQQPEKGPRYLMELKKDGSHSTGDGIPDRFSGSSSGAERYLTISSLQSEDEADYYCGVGDTIKEQFVYVFGGGTKLTVL
notes: Humanized 6C7; VH/VL only
Turning to B3, the binding result in experiment [1] is “binds”.

B4: anti-CD33 antibody 6C7H19 (antibody, V domains shown)
VH: EVQLVESGGGLVQPGGSLRLSCAGSGFTFSNYRMNWVRQAPGKGLEWVAEIRLKSNNYVTNYAASVKGRFTISRDDSKNSVYLQMNSLKTEDTGVYYCTRAGYYVPFAYWGQGTLVTVSS
VL: QLVLTQSPSASASLGASVKLTCTLSSQHSTYTIEWYQQQPEKGPRYLMELKKEGSHSTGDGIPDRFSGSSSGAERYLTISSLQSEDEADYYCGVGDTIKEQFVYVFGGGTKLTVL
notes: VH/VL only
In the case of B4, in experiment [2], the Kd was 0.238 nM, the koff stood at 0.00114 s⁻¹ and the kon was determined as 4.79e+06 M⁻¹ s⁻¹. Moreover, the “binding relative to the parental antibodies” value in experiment [3] was less than 60%.

B5: anti-CD33 antibody 6C7H2 (antibody, V domains shown)
VH: EVQLVESGGGLVQPGGSLRLSCAGSGFTFSNYCMNWVRQAPGKGLEWVAEIRLKSNNYVTNYAASVKGRFTISRDDSKNSVYLQMNSLKTEDTGVYYCTRDGYYVPFAYWGQGTLVTVSS
VL: QLVLTQSPSASASLGASVKLTCTLSSQHSTYTIEWHQQQPEKGPRYLMKLKKDGSHSTGDGIPDRFSGSSSGAERYLTISSLQSEDEADYYCGVGDTIKEQFVYVFGGGTKLTVL
notes: Humanized 6C7; VH/VL only
For the molecule B5, the binding result in experiment [1] is recorded as “no binding (tested: about 2 ug/mL)”.

B6: anti-CD33 antibody 6C7H6 (antibody, V domains shown)
VH: EVQLVESGGGLVQPGGSLRLSCAASGFTFSNYCMNWVRQAPGKGLEWVGEIRLKSNNYVTNYAASVKGRFTISRDDSKNSLYLQMNSLKTEDTAVYYCARDGYYVPFAYWGQGTLVTVSS
VL: QLVLTQSPSASASLGASAKLTCTLSSQHSTYTIEWYQQQPEKGPRYVMELKKDGSHSTGDGIPDRFSGSSSGAERYLTISSIQSEDEADYICGVGDTIKEQFVYVFGGGTKVTVL
notes: Humanized 6C7; VH/VL only
As to B6, in experiment [1], the binding result was “binds”.

B7: anti-CD33 antibody 6C7H3 (antibody, V domains shown)
VH: EVQLVESGGGLVQPGGSLRLSCAASGFTFSNYCMNWVRQAPGKGLEWVGEIRLKSNNYVTNYAASVKGRFTISRDDSKNSLYLQMNSLKTEDTAVYYCARDGYYVPFAYWGQGTLVTVSS
VL: QLVLTQSPSASASLGASVKLTCTLSSQHSTYTIEWYQQQPEKGPRYLMELKKDGSHSTGDGIPDRFSGSSSGAERYLTISSLQSEDEADYYCGVGDTIKEQFVYVFGGGTKLTVL
notes: Humanized 6C7; VH/VL only
As to B7, the binding result in experiment [1] is “binds”.

In general, Kd refers to the free concentration of one partner at which half of the binding sites on the other are occupied at equilibrium, for simple one-to-one binding. The term koff denotes the first-order rate constant of dissociation. As a reminder, the kon is the rate constant with which the complex forms.
